Reference: the supplement of paper PMC9112550, “Optimization of the antimicrobial peptide Bac7 by deep mutational scanning” (BMC Biology, 2022)

tested on: Escherichia coli TOP10; assay: shrunken log2 fold change of peptide-encoding DNA abundance (4.5 h post-induction vs induction); higher = less antimicrobial activity (less host growth inhibition); details: time post-induction: 4.5 h; library: site-saturation at positions 5, 18, 19, 20
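Further: peptides expressed intracellularly from a pBAD plasmid library in pooled LB shake-flask culture, induced with 0.3% L-arabinose, DNA abundance read by NGS, three biological replicates, DESeq2 with apeglm shrinkage.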

Row | Sequence | shrunken log2 fold change
1 | RRIRYRPPRLPRPRPRPIDRPRP | -0.017
2 | RRIRCRPPRLPRPRPRPRRNPRP | -0.0367
3 | RRIRPRPPRLPRPRPRPTGLPRP | 0.156
4 | RRIRWRPPRLPRPRPRPDQRPRP | 0.098
5 | RRIRDRPPRLPRPRPRPDWSPRP | 0.147
6 | RRIRHRPPRLPRPRPRPMNGPRP | -0.287
7 | RRIRQRPPRLPRPRPRPKNGPRP | -0.159
8 | RRIRMRPPRLPRPRPRPGHFPRP | 0.274
9 | RRIRPRPPRLPRPRPRPKQYPRP | -0.29
10 | RRIRSRPPRLPRPRPRPGLFPRP | 0.163
11 | RRIRARPPRLPRPRPRPSKVPRP | -0.0951
12 | RRIRVRPPRLPRPRPRPFTSPRP | -0.0104
13 | RRIRWRPPRLPRPRPRPNCRPRP | 0.0177
14 | RRIRCRPPRLPRPRPRPKNEPRP | -0.1
15 | RRIRQRPPRLPRPRPRPYGKPRP | -0.217
16 | RRIRNRPPRLPRPRPRPCNFPRP | -0.0737
17 | RRIRFRPPRLPRPRPRPRYFPRP | 0.0373
18 | RRIRKRPPRLPRPRPRPGCNPRP | 0.754
19 | RRIRIRPPRLPRPRPRPRRSPRP | 0.347
20 | RRIRWRPPRLPRPRPRPIHHPRP | -0.332
21 | RRIRYRPPRLPRPRPRPKKAPRP | -0.0344
22 | RRIRGRPPRLPRPRPRPAQVPRP | 0.274
23 | RRIRCRPPRLPRPRPRPYNCPRP | -0.195
24 | RRIRMRPPRLPRPRPRPNVPPRP | 0.0131
25 | RRIRIRPPRLPRPRPRPNIPPRP | -0.818

Row | Sequence | shrunken log2 fold change
26 | RRIRNRPPRLPRPRPRPPKGPRP | 0.112
27 | RRIRERPPRLPRPRPRPGIHPRP | -0.502
28 | RRIRCRPPRLPRPRPRPDSFPRP | 0.211
29 | RRIRPRPPRLPRPRPRPDQKPRP | -0.0552
30 | RRIRCRPPRLPRPRPRPTTDPRP | -0.0121
31 | RRIRTRPPRLPRPRPRPWPDPRP | -0.0269
32 | RRIRHRPPRLPRPRPRPPIPPRP | -0.11
33 | RRIRWRPPRLPRPRPRPYGDPRP | -0.113
34 | RRIRARPPRLPRPRPRPWACPRP | 0.0376
35 | RRIRIRPPRLPRPRPRPTGHPRP | -0.116
36 | RRIRERPPRLPRPRPRPEKVPRP | -0.0174
37 | RRIRSRPPRLPRPRPRPINSPRP | 0.0337
38 | RRIRVRPPRLPRPRPRPHGGPRP | -0.0243
39 | RRIRDRPPRLPRPRPRPRPGPRP | 1.6
40 | RRIRQRPPRLPRPRPRPWMQPRP | -0.062
41 | RRIRRRPPRLPRPRPRPYQVPRP | -0.0648
42 | RRIRFRPPRLPRPRPRPSMRPRP | 0.377
43 | RRIRWRPPRLPRPRPRPDHLPRP | 0.08
44 | RRIRERPPRLPRPRPRPRNSPRP | -0.639
45 | RRIRVRPPRLPRPRPRPSATPRP | 0.43
46 | RRIRPRPPRLPRPRPRPDVMPRP | 0.16
47 | RRIRVRPPRLPRPRPRPPVYPRP | -0.329
48 | RRIRRRPPRLPRPRPRPGCIPRP | 0.0498
49 | RRIRLRPPRLPRPRPRPPATPRP | 0.725
50 | RRIRARPPRLPRPRPRPLMPPRP | 0.197

Row | Sequence | shrunken log2 fold change
51 | RRIRWRPPRLPRPRPRPCECPRP | -0.151
52 | RRIRMRPPRLPRPRPRPYILPRP | -1.08
53 | RRIRSRPPRLPRPRPRPMILPRP | 0.0266
54 | RRIRKRPPRLPRPRPRPELKPRP | 0.978
55 | RRIRFRPPRLPRPRPRPDNKPRP | -0.853
56 | RRIRCRPPRLPRPRPRPCFGPRP | -0.137
57 | RRIRLRPPRLPRPRPRPLRTPRP | 1.18
58 | RRIRCRPPRLPRPRPRPQWWPRP | 0.433
59 | RRIRGRPPRLPRPRPRPAWIPRP | 0.347
60 | RRIRARPPRLPRPRPRPAIRPRP | 0.422
61 | RRIRERPPRLPRPRPRPYDLPRP | -0.169
62 | RRIRKRPPRLPRPRPRPVLKPRP | 0.185
63 | RRIRKRPPRLPRPRPRPTNPPRP | 0.155
64 | RRIRWRPPRLPRPRPRPALVPRP | 0.98
65 | RRIRWRPPRLPRPRPRPMRWPRP | 0.648
66 | RRIRHRPPRLPRPRPRPMVVPRP | 0.00198
67 | RRIRARPPRLPRPRPRPWWVPRP | 0.066
68 | RRIRLRPPRLPRPRPRPYWHPRP | -0.61
69 | RRIRLRPPRLPRPRPRPYCTPRP | 1.26
70 | RRIRWRPPRLPRPRPRPTDNPRP | -0.17
71 | RRIRGRPPRLPRPRPRPAKLPRP | 0.154
72 | RRIRYRPPRLPRPRPRPGQIPRP | -0.0348
73 | RRIRNRPPRLPRPRPRPTDMPRP | -0.0588
74 | RRIRIRPPRLPRPRPRPVDIPRP | -0.405
75 | RRIRYRPPRLPRPRPRPNLSPRP | -0.0996

Row | Sequence | shrunken log2 fold change
76 | RRIRDRPPRLPRPRPRPENLPRP | 0.0863
77 | RRIRLRPPRLPRPRPRPMPLPRP | -0.043
78 | RRIRQRPPRLPRPRPRPHETPRP | -0.0223
79 | RRIRRRPPRLPRPRPRPQQSPRP | 0.273
80 | RRIRHRPPRLPRPRPRPQEYPRP | -0.128
81 | RRIRRRPPRLPRPRPRPEDCPRP | -0.0482
82 | RRIRDRPPRLPRPRPRPRKKPRP | 0.0136
83 | RRIRQRPPRLPRPRPRPEGDPRP | 0.00223
84 | RRIRARPPRLPRPRPRPWHVPRP | -0.0219
85 | RRIRYRPPRLPRPRPRPSWVPRP | -0.597
86 | RRIRFRPPRLPRPRPRPPTCPRP | 0.186
87 | RRIRVRPPRLPRPRPRPRRAPRP | 0.751
88 | RRIRTRPPRLPRPRPRPMVHPRP | -0.00211
89 | RRIRCRPPRLPRPRPRPCRKPRP | -0.0115
90 | RRIRIRPPRLPRPRPRPILSPRP | -0.421
91 | RRIRCRPPRLPRPRPRPQEQPRP | 0.0612
92 | RRIRHRPPRLPRPRPRPTGEPRP | -0.0103
93 | RRIRWRPPRLPRPRPRPQMDPRP | -0.12
94 | RRIRFRPPRLPRPRPRPCPTPRP | -0.0449
95 | RRIRMRPPRLPRPRPRPGPSPRP | 1.23
96 | RRIRHRPPRLPRPRPRPYGCPRP | -0.118
97 | RRIRIRPPRLPRPRPRPVGTPRP | -0.126
98 | RRIRDRPPRLPRPRPRPAFLPRP | 0.000425
99 | RRIRTRPPRLPRPRPRPLFQPRP | -0.348
100 | RRIRVRPPRLPRPRPRPTEWPRP | 0.322

Row | Sequence | shrunken log2 fold change
101 | RRIRWRPPRLPRPRPRPLDIPRP | 1.52
102 | RRIRFRPPRLPRPRPRPLACPRP | -0.162
103 | RRIRQRPPRLPRPRPRPVDEPRP | -0.249
104 | RRIRHRPPRLPRPRPRPLHYPRP | -0.284
105 | RRIRGRPPRLPRPRPRPAKNPRP | 0.554
106 | RRIRHRPPRLPRPRPRPMSHPRP | -0.0479
107 | RRIRSRPPRLPRPRPRPELWPRP | 0.743
108 | RRIRARPPRLPRPRPRPFWEPRP | 0.269
109 | RRIRYRPPRLPRPRPRPMDYPRP | -0.218
110 | RRIRWRPPRLPRPRPRPGTPPRP | 0.356
111 | RRIRHRPPRLPRPRPRPGPTPRP | 0.146
112 | RRIRERPPRLPRPRPRPNFGPRP | 0.0437
113 | RRIRTRPPRLPRPRPRPTATPRP | 0.286
114 | RRIRMRPPRLPRPRPRPVKNPRP | 0.00715
115 | RRIRLRPPRLPRPRPRPLLSPRP | -0.327
116 | RRIRGRPPRLPRPRPRPEGSPRP | 1.28
117 | RRIRWRPPRLPRPRPRPKQGPRP | 0.125
118 | RRIRNRPPRLPRPRPRPSDSPRP | -0.0909
119 | RRIRGRPPRLPRPRPRPFWEPRP | 0.577
120 | RRIRLRPPRLPRPRPRPLEPPRP | 0.0493
121 | RRIRYRPPRLPRPRPRPREDPRP | -0.126
122 | RRIRRRPPRLPRPRPRPMDNPRP | 0.158
123 | RRIRIRPPRLPRPRPRPAGWPRP | 0.582
124 | RRIRKRPPRLPRPRPRPKPFPRP | 0.611
125 | RRIRVRPPRLPRPRPRPSKRPRP | -0.229

Row | Sequence | shrunken log2 fold change
126 | RRIRTRPPRLPRPRPRPQDAPRP | -0.0107
127 | RRIRYRPPRLPRPRPRPHIVPRP | -0.102
128 | RRIRERPPRLPRPRPRPFCLPRP | -0.558
129 | RRIRHRPPRLPRPRPRPCCLPRP | -0.82
130 | RRIRHRPPRLPRPRPRPTPPPRP | 0.391
131 | RRIRCRPPRLPRPRPRPILAPRP | 0.127
132 | RRIRERPPRLPRPRPRPIFRPRP | -0.00741
133 | RRIRERPPRLPRPRPRPFSCPRP | 0.0263
134 | RRIRTRPPRLPRPRPRPAKYPRP | -0.355
135 | RRIRCRPPRLPRPRPRPEHRPRP | -0.0739
136 | RRIRIRPPRLPRPRPRPDSQPRP | -0.0342
137 | RRIRWRPPRLPRPRPRPCRSPRP | 0.0427
138 | RRIRCRPPRLPRPRPRPYHRPRP | -0.77
139 | RRIRNRPPRLPRPRPRPWFAPRP | 0.801
140 | RRIRFRPPRLPRPRPRPYYEPRP | -0.231
141 | RRIRSRPPRLPRPRPRPVYSPRP | -0.0582
142 | RRIRDRPPRLPRPRPRPGTIPRP | -0.485
143 | RRIRRRPPRLPRPRPRPGIRPRP | 0.108
144 | RRIRHRPPRLPRPRPRPVQVPRP | -0.162
145 | RRIRRRPPRLPRPRPRPFTIPRP | 0.0518
146 | RRIRLRPPRLPRPRPRPHCAPRP | -0.309
147 | RRIRWRPPRLPRPRPRPFHTPRP | -0.171
148 | RRIRNRPPRLPRPRPRPDPRPRP | 0.562
149 | RRIRYRPPRLPRPRPRPILIPRP | -0.256
150 | RRIRERPPRLPRPRPRPALIPRP | 0.129
